We go through 2 molecules from paper PMC3058899 (Nature, 2010).

For one series, the target named is T1, RebH (Lentzea aerocolonigenes, UniProt Q8KHZ8).
T1 sequence (Q8KHZ8 1-530): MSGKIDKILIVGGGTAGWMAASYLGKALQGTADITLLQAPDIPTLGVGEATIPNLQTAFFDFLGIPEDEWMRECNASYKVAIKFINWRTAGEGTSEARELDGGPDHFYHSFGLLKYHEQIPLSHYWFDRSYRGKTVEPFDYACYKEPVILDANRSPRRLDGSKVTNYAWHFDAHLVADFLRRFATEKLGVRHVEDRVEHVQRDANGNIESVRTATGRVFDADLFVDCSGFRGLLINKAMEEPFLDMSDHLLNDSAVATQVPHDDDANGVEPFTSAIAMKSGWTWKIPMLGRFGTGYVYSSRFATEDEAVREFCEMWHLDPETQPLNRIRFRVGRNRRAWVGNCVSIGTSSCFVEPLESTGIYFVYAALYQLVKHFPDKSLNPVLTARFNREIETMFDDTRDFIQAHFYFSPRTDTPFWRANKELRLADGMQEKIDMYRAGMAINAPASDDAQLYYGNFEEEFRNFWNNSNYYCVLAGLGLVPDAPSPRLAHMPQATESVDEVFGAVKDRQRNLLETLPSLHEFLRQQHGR
Put plainly: LC-MS of 7-chlorotryptophan in transformed C. roseus hairy roots. The class given is cell-based. To be noted: with RebF reductase, chloride; in planta.

In the next series the target is PyrH (Streptomyces rugosporus, UniProt A4D0H5). Put plainly: LC-MS of 5-chlorotryptophan in transformed C. roseus hairy roots. The series is classed as cell-based. To be noted: with RebF reductase, chloride; in planta.
Substrate in series [1]: N[C@@H](Cc1c[nH]c2ccccc12)C(=O)O
As to the kind of experiment: in vitro steady-state kinetics of decarboxylation. The class given is biochemical, Catharanthus roseus.

Substrate in series [2]: N[C@@H](Cc1c[nH]c2ccc(Cl)cc12)C(=O)O
Put plainly: in vitro steady-state kinetics of decarboxylation. The class given is biochemical, Catharanthus roseus.

Substrate in series [3]: N[C@@H](Cc1c[nH]c2c(Cl)cccc12)C(=O)O
Put plainly: in vitro steady-state kinetics of decarboxylation. The series is classed as biochemical, Catharanthus roseus.

As a reminder, the Km is the concentration of substrate that gives half-maximal velocity. Broadly, the kcat is the maximal rate divided by the concentration of active sites.

Chain of PyrH (A4D0H5 whole entry): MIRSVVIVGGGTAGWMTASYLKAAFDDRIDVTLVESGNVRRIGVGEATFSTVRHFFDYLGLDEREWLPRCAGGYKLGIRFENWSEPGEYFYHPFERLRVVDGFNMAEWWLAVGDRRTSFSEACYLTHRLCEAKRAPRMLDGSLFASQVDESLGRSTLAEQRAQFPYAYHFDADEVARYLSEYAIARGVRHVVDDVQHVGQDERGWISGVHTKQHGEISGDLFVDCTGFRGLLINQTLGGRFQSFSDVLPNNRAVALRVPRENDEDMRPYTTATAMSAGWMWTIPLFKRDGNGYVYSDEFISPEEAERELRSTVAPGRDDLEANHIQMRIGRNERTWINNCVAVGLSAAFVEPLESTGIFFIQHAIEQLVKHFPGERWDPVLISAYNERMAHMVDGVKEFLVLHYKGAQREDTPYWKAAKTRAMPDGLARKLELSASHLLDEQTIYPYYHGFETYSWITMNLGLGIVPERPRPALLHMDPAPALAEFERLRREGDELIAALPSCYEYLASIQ

In the case of `N[C@@H](Cc1c[nH]c2ccccc12)C(=O)O` [compound 1, tryptophan], the “LC-MS of 7-chlorotryptophan in transformed C. roseus hairy roots” value on RebH is “formation of chlorinated tryptophan 1a and 1b and chlorinated alkaloids in both the RebH/RebF”. Also, on PyrH, the “LC-MS of 5-chlorotryptophan in transformed C. roseus hairy roots” value is listed as “we observed accumulation of 5-chlorotryptophan 1b”.

B1: tryptophan decarboxylase (C. roseus) (Catharanthus roseus) (protein)
chain: MGSIDSTNVAMSNSPVGEFKPLEAEEFRKQAHRMVDFIADYYKNVETYPVLSEVEPGYLRKRIPETAPYLPEPLDDIMKDIQKDIIPGMTNWMSPNFYAFFPATVSSAAFLGEMLSTALNSVGFTWVSSPAATELEMIVMDWLAQILKLPKSFMFSGTGGGVIQNTTSESILCTIIAARERALEKLGPDSIGKLVCYGSDQTHTMFPKTCKLAGIYPNNIRLIPTTVETDFGISPQVLRKMVEDDVAAGYVPLFLCATLGTTSTTATDPVDSLSEIANEFGIWIHVDAAYAGSACICPEFRHYLDGIERVDSLSLSPHKWLLAYLDCTCLWVKQPHLLLRALTTNPEYLKNKQSDLDKVVDFKNWQIATGRKFRSLKLWLILRSYGVVNLQSHIRSDVAMGKMFEEWVRSDSRFEIVVPRNFSLVCFRLKPDVSSLHVEEVNKKLLDMLNSTGRVYMTHTIVGGIYMLRLAVGSSLTEEHHVRRVWDLIQKLTDDLLKEA
Consider B1, for which the results for the Km in series [1], in series [2] and in series [3] were 51.7 ± 9.2 µM, 538 ± 48 µM and 499 ± 74 µM, respectively. Also, the results for the kcat in series [1], in series [2] and in series [3] were 0.085 ± 0.0017 s⁻¹, 0.0417 ± 0.0013 s⁻¹ and 0.0267 ± 0.00067 s⁻¹, respectively.
